One substance from publication PMC9529347 can be followed below.

The target of this test is SARS-CoV-1 RBD-Fc (RBD N321-P513 fused to CH2 and CH3 of mouse IgG1) (SARS-CoV-1). Description: SPR. In general terms: SPR reads the build-up and loss of mass on a sensor chip optically.

Sequence of soluble human ACE2, truncated ectodomain (S19-D615), C-terminal 6xHIS-tag (Q9BYF1 19-615): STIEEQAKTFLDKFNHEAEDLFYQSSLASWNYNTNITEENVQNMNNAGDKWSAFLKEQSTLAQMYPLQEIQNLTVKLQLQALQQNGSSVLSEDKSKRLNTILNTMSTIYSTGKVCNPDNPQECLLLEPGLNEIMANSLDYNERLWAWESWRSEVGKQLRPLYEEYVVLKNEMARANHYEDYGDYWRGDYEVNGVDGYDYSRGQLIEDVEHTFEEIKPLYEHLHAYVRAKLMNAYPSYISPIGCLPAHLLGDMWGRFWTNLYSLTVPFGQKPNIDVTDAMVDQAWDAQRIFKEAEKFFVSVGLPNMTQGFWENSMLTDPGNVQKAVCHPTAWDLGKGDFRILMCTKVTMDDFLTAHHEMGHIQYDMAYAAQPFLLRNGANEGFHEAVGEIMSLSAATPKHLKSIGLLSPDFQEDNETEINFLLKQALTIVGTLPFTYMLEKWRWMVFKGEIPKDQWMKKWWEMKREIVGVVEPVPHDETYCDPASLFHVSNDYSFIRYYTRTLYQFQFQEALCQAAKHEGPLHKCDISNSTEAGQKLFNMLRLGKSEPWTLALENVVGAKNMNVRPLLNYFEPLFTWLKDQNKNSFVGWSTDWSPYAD

As a reminder, the Kd is the concentration at which binding is half-saturated. Low readings indicate a tighter complex, high ones a looser complex. In the case of “soluble human ACE2, truncated ectodomain (S19-D615), C-terminal 6xHIS-tag (from UniProt Q9BYF1 19-615) (receptor)”, the Kd is 0.385 µM.
